Experimental findings from patent US20260191907A1 (INSTITUT CURIE, published 2026) are described below.

As usually defined, the Kd is a measure of binding affinity in units of concentration.

Test [1] addresses T1, Recombinant FGFR3 (G&P Biosciences) (UniProt P22607 23-375, limits assumed).
T1 construct: Immobilised on the SPR chip
T1 sequence (looked up): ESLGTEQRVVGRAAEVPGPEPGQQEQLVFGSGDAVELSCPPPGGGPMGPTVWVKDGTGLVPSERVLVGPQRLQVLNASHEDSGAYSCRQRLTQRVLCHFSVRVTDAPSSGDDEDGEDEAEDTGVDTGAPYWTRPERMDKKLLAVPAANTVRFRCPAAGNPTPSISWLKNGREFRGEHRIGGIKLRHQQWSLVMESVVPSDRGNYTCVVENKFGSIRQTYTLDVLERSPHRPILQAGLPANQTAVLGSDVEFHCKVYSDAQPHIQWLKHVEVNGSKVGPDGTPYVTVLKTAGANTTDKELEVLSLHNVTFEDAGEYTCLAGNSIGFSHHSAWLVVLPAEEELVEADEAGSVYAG
As to the kind of experiment: SPR, FGFR3 immobilised, nanobody as analyte at five concentrations. The protocol:
(§1) Single cycle kinetics analysis was performed with the BIAcore® T200 instrument (GE Healthcare) on CMD200M sensor chips (XanTec bioanalytics GmbH) activated with a mixture of 300 mM NHS (N-hydroxysuccinimide) and 50 mM EDC (N-ethyl-N′-(dimethylaminopropyl) carbodiimide). Recombinant FGFR1, FGFR2, FGFR3 and FGFR4 (G&P Biosciences) were immobilized on the activated biosensors (800 to 12′000 RU; 1 RU=1 pg/mm²) followed by a blocking step with 1M ethanolamine. One flow channel per chip was used as a reference to provide background corrections. The nanobodies were injected at 5 different concentrations followed by a dissociation phase. Koff-rates were determined from a final dissociation step after the last injection. The measurements with FGFR4 were performed for each nanobody on freshly immobilized protein due to strong binding and incomplete dissociation from the surface. Immobilization flow rate was 5 μl/min and binding studies were performed at 30 μl/min. Binding parameters were determined with the heterogeneous ligand model fit of the BIAevaluation software. The black curves represent the measured data and red curves show the performed fit analysis.
To determine the binding affinity of the nanobodies to FGFR4, we performed surface plasmon resonance (SPR) spectroscopy with recombinant FGFR4. As already mentioned above, FGFR1 and FGFR2 are expressed on Rh4-FR4ko cells and flow cytometry analysis indicated no binding of the nanobodies to the cells. To further confirm FGFR4-specificity, we included also affinity measurements with recombinant FGFR1, FGFR2 and FGFR3. Nanobodies A8, B1, B5, F8, and mCh were injected in five different concentrations on a FGFR coated chip. Except for the negative control mCh, calculated KD values for FGFR4 binding were in the nano- and picomolar range (FIG. 3; Table 2). Affinity parameters could not be fitted with a 1:1 binding model and best fits were obtained with the heterogeneous ligand model of the BIAevaluation software resulting in two KD values for each candidate.
On the technique in general: In SPR one partner is held on a chip, and binding of the other changes the refractive index at the surface.

For test [2], the target named is T2, Recombinant FGFR4 (G&P Biosciences) (human, UniProt P22455 22-369).
T2 construct: Bought protein; the SPR method says only 'Recombinant; also called rFGFR4; extracellular FGFR4
T2 sequence: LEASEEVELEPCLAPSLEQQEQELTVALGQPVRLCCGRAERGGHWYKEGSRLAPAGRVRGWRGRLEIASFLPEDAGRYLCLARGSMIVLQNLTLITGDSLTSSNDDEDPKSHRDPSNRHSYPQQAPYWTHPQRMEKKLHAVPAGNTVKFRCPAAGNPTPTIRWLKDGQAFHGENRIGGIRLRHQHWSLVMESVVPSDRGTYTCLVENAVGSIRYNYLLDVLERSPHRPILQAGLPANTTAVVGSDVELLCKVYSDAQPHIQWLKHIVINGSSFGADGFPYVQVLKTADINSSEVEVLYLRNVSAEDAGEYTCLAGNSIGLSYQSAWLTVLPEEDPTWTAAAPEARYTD
Nature of the test: SPR (BIAcore T200), single cycle kinetics, FGFR4 amine-immobilised, nanobody as analyte, heterogeneous ligand model, component 2 (KD2). The protocol:
FIG. 3: Affinity determination of nanobodies to recombinant protein via surface plasmon resonance spectroscopy. Single cycle kinetics analysis was performed on immobilized FGFR4 through covalent amine binding on the dextran based sensor chip. The analytes A8, B1, B5, F8 and mCh were injected in 5 different concentrations followed by a dissociation phase. A final dissociation step was added after the last injection step to determine Koff rates for the KD calculations. The black curves represent the measured data and red curves show the fit analysis (heterogeneous ligand model) performed with the BIAevaluation software.
as §1
To determine the binding affinity of the nanobodies to FGFR4, we performed surface plasmon resonance (SPR) spectroscopy with recombinant FGFR4. As already mentioned above, FGFR1 and FGFR2 are expressed on Rh4-FR4ko cells and flow cytometry analysis indicated no binding of the nanobodies to the cells. To further confirm FGFR4-specificity, we included also affinity measurements with recombinant FGFR1, FGFR2 and FGFR3. Nanobodies A8, B1, B5, F8, and mCh were injected in five different concentrations on a FGFR coated chip.

Test [3] deals with T3, FGFR4 expressed on the surface of RMS cells (Rh4-FR4 wt, Rh30) (human, UniProt P22455 22-802).
T3 construct: Endogenous FGFR4 of the rhabdomyosarcoma cell lines; The whole entry includes the signal peptide; also called cell-surface FGFR4; Rh4-FR4 wt cells
Nature of the test: flow cytometry, recombinant nanobody at 30 µg/ml on Rh4-FR4 wt cells, anti-6xHis-FITC detection. The protocol:
Control cells (C) were either not stimulated or stimulated with FGF19 in absence of the nanobodies. The cell lysates were analysed by western blot with anti phospho ERK1/2 antibody. Total Erk1/2 levels are shown as loading control.
Binding validation of selected phages, recombinant nanobodies and decorated liposomes was performed on Rh4-FR4 wt and Rh4-FR4ko cells. Specificity of selected phage clones binding to FGFR4 was determined by flow cytometry in 96-well plates (Becton Dickinson). Cell surface staining of Rh4-FR4 wt or Rh4-FR4ko cells was performed on ice in PBS supplemented with 1% FBS. 80 μL phages+20 μL PBS/1% milk were incubated on 1×10⁵ cells for 1 h on ice. […] Samples were analyzed after two washes by flow cytometry on a MACSQuant® cytometer (Miltenyi) and results were analyzed with FlowJo™ software (BD Biosciences, France). Phages displaying anti-mCherry nanobodies were used as negative control²⁴ and as positive control we used an anti-FGFR4 antibody (BT53, kindly provided by J. Khan lab, NCI, Bethesda, MD). For binding test of recombinant nanobodies, cells were detached with Accutase® (Stemcell Technologies) and washed with PBS. All following steps were performed on ice: 4×10⁵ cells were incubated with nanobody concentrations of 30 μg/ml for 1 h, washed once with PBS and incubated for an additional 30 min with anti His-tag FITC labeled antibody (LS-C57341, LSBioscience, diluted 1:10). The cells were washed once more with PBS and analyzed. Targeting liposomes were added at 0.5 mM final lipid concentration to cells in 96-well plates and incubated for 2 h at 37° C. and 5% CO₂. The cells were washed twice with PBS and detached with Accutase®.
Validation of the binding of recombinant nanobodies to cell-surface expressed FGFR4 was performed with Rh4-FR4 wt and Rh4-FR4ko cells by flow cytometry. A FITC-labeled anti-6×His-tag antibody was used to detect surface-bound nanobodies.
In general terms: Flow cytometry measures light scatter and fluorescence of single cells or particles in a stream.

B1: F8 nanobody (anti-FGFR4 sdAb, Gimli library) (VHH)
VHH: EVQLVESGGGLVQPGGSLRLSCAASGTGYALDDMGWVRQAPGKGLEWVSAISDDESMADYYADSVKGRFTISRDNSKNTVYLQMNSLRAEDTAVYYCASYKEYKYQSGHHYFAYRGQGTLVTVSS
notes: Recombinant nanobody of about 17 kDa; also called F8 sdAb; not shown: C-terminal Myc/6xHis-tag and an additional cysteine
Turning to B1, the binding result in test [1] is on record as “no binding”. Also, the dissociation constant Kd in test [2] turned out to be 4.14 nM. Further, in test [3], the “median fluorescence intensity (MFI)” value was about 400 MFI.

B2: B5 nanobody (anti-FGFR4 sdAb, NaLi-H1 library) (VHH)
VHH: EVQLQASGGGFVQPGGSLRLSCAASGRTSWLTTMGWFRQAPGKEREFVSAISSFSSKQGYYADSVKGRFTISRDNSKNTVYLQMNSLRAEDTATYYCAYASYPRHQGNGRWKDFVEYWGQGTQVTVSS
notes: Recombinant nanobody of about 17 kDa; also called B5 sdAb; not shown: C-terminal Myc/6xHis-tag and an additional cysteine
As for B2, the binding result in test [1] was “no binding”. Besides, the Kd in test [2] came out at 0.000216 nM. Besides, in test [3], the “median fluorescence intensity (MFI)” value was about 400 MFI.

B3: A8 nanobody (anti-FGFR4 sdAb, NaLi-H1 library) (VHH)
VHH: EVQLQASGGGFVQPGGSLRLSCAASGRTYSRDTMGWFRQAPGKEREFVSAISSRHSHTTYYADSVKGRFTISRDNSKNTVYLQMNSLRAEDTATYYCAEWDVFDMHYALPPMWYWGQGTQVTVSS
notes: also called A8 sdAb; not shown: C-terminal Myc/6xHis-tag and an additional cysteine
Consider B3, for which, in test [1], the binding result is reported as “no binding”. The Kd in test [2] came out at 36.8 nM. Moreover, the “median fluorescence intensity (MFI)” value in test [3] is about 400 MFI.

B4: B1 nanobody (anti-FGFR4 sdAb, NaLi-H1 library) (VHH)
VHH: EVQLQASGGGFVQPGGSLRLSCAASGYTSRSSAMGWFRQAPGKEREFVSAISDLTGYPYYYADSVKGRFTISRDNSKNTVYLQMNSLRAEDTATYYCAAYQDDKWTYGSQHGKYWGQGTQVTVSS
notes: also called B1 sdAb; not shown: C-terminal Myc/6xHis-tag and an additional cysteine
As for B4, the binding result in test [1] is listed as “no binding”. In addition, the Kd in test [2] stood at 4.6 nM. In addition, the “median fluorescence intensity (MFI)” value in test [3] is about 400 MFI.
